According to patent US20130330358A1, “CRYSTAL STRUCTURE AND PEPTIDE INHIBITORS OF HAUSP DEUBIQUITINASE” (priority 2011, published 2013):
Like-named read-outs stand apart in the source and are kept apart here.

B1: vIRF4^153-216: vIRF4 aa 153-216 fragment, hexahistidine-tagged, expressed in E. coli (protein)
chain: SDTREQSYEEAGAAAPAPPKAPSGLRGRPRKSNRYYNVGDITTEQKAACSVWIPVNEGASTSGM
modifications: left off: small tags and cut ends
notes: vIRF4 aa 153-216 fragment, hexahistidine-tagged, expressed in E. coli
B2: vIRF4^153-256: vIRF4 aa 153-256 region, hexahistidine-tagged, expressed in E. coli (protein)
chain: SDTREQSYEEAGAAAPAPPKAPSGLRGRPRKSNRYYNVGDITTEQKAACSVWIPVNEGASTSGMGSSGTRQVTQASSFTWRVPGDPPAPSTLTGPSDPHSSGAG
modifications: left off: small tags and cut ends
notes: vIRF4 aa 153-256 region, hexahistidine-tagged, expressed in E. coli

Assays:
[1] = molecular target: T1, HAUSP TRAF domain HAUSP^62-205 (Homo sapiens, UniProt Q93009); experiment: biochemical; format: binding; settings: for n: Table 1a, ITC fit parameter n, 150 mM NaCl, 10 mM HEPES (pH 7.0)
T1 construct: HAUSP^62-205, and HAUSP^62-560 were fused to a hexahistidine-tag2 and expressed in E. coli BL21 (DE3) RIPL cells; hexahistidine (cleaved yes); made in house; host or cells: E. coli BL21 (DE3) RIPL
T1 sequence (Q93009 62-205): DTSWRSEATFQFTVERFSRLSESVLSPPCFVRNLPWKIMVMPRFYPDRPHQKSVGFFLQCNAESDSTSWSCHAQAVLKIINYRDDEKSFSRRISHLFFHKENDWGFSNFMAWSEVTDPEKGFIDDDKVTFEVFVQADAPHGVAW
Procedure: FIG. 5. Typical isothermal titration calorimetric measurements of the interactions between the HAUSP TRAF domain and the vIRF4 protein derivatives or other peptides. Purified proteins and synthesized peptides were reconstituted in 150 mM NaCl and 10 mM HEPES (pH 7.0). The calorimetric assays were performed using a VPITC system. All experiments were carried out with a stirring speed of 300 rpm at 20° C., and the thermal power was recorded every 10 s. Data were analyzed using the ORIGIN software package (version 7.0). […] Each titration against the HAUSP TRAF domain is indicated in each panel.
Purified proteins and synthesized peptides (Peptron Inc., Deajeon, Korea) were reconstituted in 150 mM NaCl and 10 mM HEPES (pH 7.0). The calorimetric assays were performed using a VP-ITC system (MicroCal Inc., Northampton, Mass.). Samples were degassed by vacuum aspiration for 15 min prior to loading. All experiments were carried out with a stirring speed of 300 rpm at 20° C., and the thermal power was recorded every 10 s. Data were analyzed using the ORIGIN software package (version 7.0) supplied with the instrument. […]

[2] = molecular target: T1, HAUSP TRAF domain HAUSP^62-205; experiment: Size exclusion chromatography, complex formation in 5-fold excess of MDM2^137-152; format: binding; settings: in the presence of a 5-fold molar excess of MDM2 peptide

Molecule	Kd ([1]; ITC, 20° C., read-out: Kd) [nM]	n ([1]; 20° C.)	complex formation with the HAUSP TRAF domain [2]	Kd ([1]; HAUSP^62-205 and vIRF4^153-256, ITC, read-out: dissociation constant (Kd)) [nM]
B1	540	0.82 ± 0.09	formed a stable complex	
B2	76	1.13 ± 0.18		76
